Data: article PMC4203850, “Conformational Antibody Binding to a Native, Cell-Free Expressed GPCR in Block Copolymer Membranes” (PLoS ONE, 2014)

Molecular target: T1, radiolabeled (I-125) SDF-1α (stromal cell-derived factor-1 alpha) (UniProt P48061-2 22-89, 125I radiolabel (position not given))
T1 construct: SDF-1α (stromal cell-derived factor-1 alpha), the natural ligand of CXCR4; the alpha isoform
Assay: radioligand binding; saturation assay: constant CXCR4-ACM concentration, varying 125I-SDF, with and without 0.5 µM unlabeled SDF; 96-well plate, filtration; GraphPad Prism
Details: both partners purified

T1 sequence (P48061 22-89): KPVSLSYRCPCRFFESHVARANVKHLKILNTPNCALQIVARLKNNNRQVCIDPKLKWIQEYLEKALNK

- Kd: 8.4 nM
B1: CXCR4 embedded in polymersome membranes (CXCR4-ACMs) (receptor, UniProt P61073 1-352, looked up)
chain: MEGISIYTSDNYTEEMGSGDYDSMKEPCFREENANFNKIFLPTIYSIIFLTGIVGNGLVILVMGYQKKLRSMTDKYRLHLSVADLLFVITLPFWAVDAVANWYFGNFLCKAVHVIYTVNLYSSVLILAFISLDRYLAIVHATNSQRPRKLLAEKVVYVGVWIPALLLTIPDFIFANVSEADDRYICDRFYPNDLWVVVFQFQHIMVGLILPGIVILSCYCIIISKLSHSKGHQKRKALKTTVILILAFFACWLPYYIGISIDSFILLEIIKQGCEFENTVHKWISITEALAFFHCCLNPILYAFLGAKFKTSAQHALTSVSRGSSLKILSKGKRGGHSSVSTESESSSFHSS
notes: Receptor sits in polybutadiene-b-poly(ethylene oxide) polymersome membrane with 1% DSPE-PEG-biotin; The introduction speaks in general of 'native, full-length membrane proteins' for this approach; also called C4-ACMs; native CXCR4
